Source: paper PMC11662939, “CRISPR-AsCas12f1 couples out-of-protospacer DNA unwinding with exonuclease activity in the sequential target cleavage”
Where a chain is given by its changes, count along the chain named.

T1: AsCas12f1 (Acidibacillus sulfuroxidans, UniProt A0A2U3D0N8 1-422)
T1 sequence: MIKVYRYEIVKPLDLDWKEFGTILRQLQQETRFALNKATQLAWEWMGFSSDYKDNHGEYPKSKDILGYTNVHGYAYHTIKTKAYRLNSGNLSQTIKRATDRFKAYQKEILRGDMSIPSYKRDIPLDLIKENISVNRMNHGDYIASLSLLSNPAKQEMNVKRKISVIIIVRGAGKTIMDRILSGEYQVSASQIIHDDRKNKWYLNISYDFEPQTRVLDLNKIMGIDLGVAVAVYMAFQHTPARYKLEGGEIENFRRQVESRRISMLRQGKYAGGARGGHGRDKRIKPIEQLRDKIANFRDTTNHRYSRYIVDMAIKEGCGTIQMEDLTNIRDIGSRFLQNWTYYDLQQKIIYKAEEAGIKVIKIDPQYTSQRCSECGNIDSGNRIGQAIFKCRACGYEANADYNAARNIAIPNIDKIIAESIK

B1: smFRET target DNA with crRNA/tracrRNA (mixed)
DNA 1: ACGCACCAGAAACGAAGGCTACGTCCAGGAGCGCACCATCTTCTTCAAGGAATACAAACAAGCTAAGCACAACGTCGTCT
DNA 2: AGACGACGTTGTGCTTAGCTTGTTTGTATTCCTTGAAGAAGATGGTGCGCTCCTGGACGTAGCCTTCGTTTCTGGTGCGT
RNA 1: GUUUGCGAGCUAGCUUGUGGAGUGUGAACUAUUCCUUGAAGAAGAUGGU
RNA 2: GGAUUCGUCGGUUCAGCGACGAUAAGCCGAGAAGUGCCAAUAAAACUGUUAAGUGGUUUGGUAACGCUCGGUAAGGUAGCCAAAAGGCUGAAACUCCGUGCACAAAGACCGCACGGACGCUUCACAUAUAGCUCAUAAAC
B2: Protospacer 16-20mm DNA with crRNA/tracrRNA (mixed)
DNA 1: B1 DNA 1 with A35G, C36T, C37A, A38C, T39G
DNA 2: B1 DNA 2 with A42C, T43G, G44T, G45A, T46C
RNA 1: B1 RNA 1
RNA 2: B1 RNA 2

Columns and labels:
AsCas12f1 [1] = target: T1, AsCas12f1; assay: smFRET; crRNA-tracrRNA; binding then cleavage, E ~0.5; Assay buffers not in the material; duplexes annealed in 20 mM Tris-HCl pH 8.0, 50 mM NaCl; smFRET with 1-10 mM Mg2+; details: protein: recombinant; tags: N-terminal His6-SUMO, removed by HRV3C; chain copies: 2; label: iCy3dT (+34) and 3' biotin on NTS; 3' Cy5 on crRNA; strands: TS/NTS/crRNA/tracrRNA; DNA blunt; crRNA 3' 20 nt pairs with TS
AsCas12f1 [2] = target: T1, AsCas12f1; assay: smFRET; partially matched guide/target (16-20mm); low E 0.2-0.4, partial hybridization; Assay buffers not in the material; duplexes annealed in 20 mM Tris-HCl pH 8.0, 50 mM NaCl; smFRET with 1-10 mM Mg2+; details: protein: recombinant; tags: N-terminal His6-SUMO, removed by HRV3C; chain copies: 2; label: iCy3dT and 3' biotin on NTS; 3' Cy5 on crRNA; strands: TS/NTS/crRNA/tracrRNA; DNA blunt; guide mismatched at positions 16-20

| Binder | binding result (AsCas12f1 [1]) | binding result (AsCas12f1 [2]) |
| --- | --- | --- |
| B1 | binds |  |
| B2 |  | binds |
